Assay [1] concerns the target T1, recombinant PfRhopH3 C-terminal fragment (PfRhopH3C; 617-865 aa) (Plasmodium falciparum, UniProt Q8I395 617-865).
T1 construct: RhopH3 (high molecular weight rhoptry protein 3) of Plasmodium falciparum, C-terminal portion, residues 617-865 (747 bp); also called rPfRhopH3C; rRhopH3C; source: recombinant, codon-optimized gene in pMTSAra, induced by L-arabinose, purified (Ni-NTA)
T1 sequence: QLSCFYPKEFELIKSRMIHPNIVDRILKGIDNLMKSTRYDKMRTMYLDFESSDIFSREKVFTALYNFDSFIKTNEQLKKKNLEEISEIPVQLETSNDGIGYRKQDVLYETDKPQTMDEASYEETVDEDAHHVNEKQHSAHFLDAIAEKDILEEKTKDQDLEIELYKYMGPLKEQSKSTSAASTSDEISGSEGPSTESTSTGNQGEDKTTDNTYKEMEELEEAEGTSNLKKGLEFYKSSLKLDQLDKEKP
Kind of assay: MST; 14-3-3[…] (10 uM) labelled with NT-647 NHS, titrated with different concentrations of PfRhopH3C. The settings on record: both partners purified.

Assay [2] concerns the target T1, recombinant PfRhopH3 C-terminal …. Description: ELISA; PfRhopH3C (200 ng) coated overnight; overlaid with 14-3-3[…] TBD or full length; detected with anti-14-3-3[…] antibodies, O.D.450. The settings on record: both partners purified.

B1: recombinant human 14-3-3[…] (eta), full length (246 aa) (natural protein, UniProt Q04917 1-246, looked up)
chain: MGDREQLLQRARLAEQAERYDDMASAMKAVTELNEPLSNEDRNLLSVAYKNVVGARRSSWRVISSIEQKTMADGNEKKLEKVKAYREKIEKELETVCNDVLSLLDKFLIKNCNDFQYESKVFYLKMKGDYYRYLAEVASGEKKNSVVEASEAAYKEAFEISKEQMQPTHPIRLGLALNFSVFYYEIQNAPEQACLLAKQAFDDAIAELDTLNEDSYKDSTLIMQLLRDNLTLWTSDQQDEEAGEGN
modifications: labelled with amine-reactive dye NT-647 NHS (for MST only)
notes: human 14-3-3 protein eta, gene ID YWHAH, full length, 246 aa (738 bp); the discussion names it eta; also called 14-3-3[…] full length; r14-3-3[…]; source: recombinant, codon-optimized gene in pET-28a(+), induced by IPTG, purified (Ni-NTA)
With B1, the Kd in assay [1] was 66 nM.

B2: recombinant 14-3-3[…] Target Binding Domain (TBD; 94-246 aa) (domain or fragment, human, UniProt Q04917 94-246, looked up)
chain: ETVCNDVLSLLDKFLIKNCNDFQYESKVFYLKMKGDYYRYLAEVASGEKKNSVVEASEAAYKEAFEISKEQMQPTHPIRLGLALNFSVFYYEIQNAPEQACLLAKQAFDDAIAELDTLNEDSYKDSTLIMQLLRDNLTLWTSDQQDEEAGEGN
notes: also called 14-3-3[…] TBD; source: recombinant, PCR-amplified into pMTSAra, induced by L-arabinose, purified (Ni-NTA)
B2: in assay [2], the binding result is recorded as “binds”.

The values above are taken from paper doi:10.1101/2023.04.15.537002, “Identification of merozoite secreted repertoire and immuno-pharmacological inhibition of a novel host-parasite interaction to block malarial infection” (bioRxiv, 2023).
